Common to all, as to test: cell-based or functional assay
Assay [1] addresses carcinoembryonic antigen (CEA) on LoVo, LS174T or H508 tumor cells (UniProt P06731).
In assay [2] the target is Human folate receptor alpha (FolR) on cells (human) (UniProt P15328).
Assay [3] deals with PD-L1 on LoVo / LoVo.OKT3.GFP cells (UniProt Q9NZQ7).

Several values for one entry are separate records, joined by “and”; a condition that tells them apart may be missing. Equal values may be shown once.

UniProt P15328, sequence (P15328 25-234): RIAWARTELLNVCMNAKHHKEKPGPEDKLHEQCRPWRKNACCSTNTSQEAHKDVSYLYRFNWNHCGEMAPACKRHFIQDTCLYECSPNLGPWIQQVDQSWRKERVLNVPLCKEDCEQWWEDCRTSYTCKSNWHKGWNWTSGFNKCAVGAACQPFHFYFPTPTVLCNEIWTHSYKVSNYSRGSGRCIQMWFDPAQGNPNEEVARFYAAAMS
UniProt P06731, sequence (P06731 35-702 limits assumed): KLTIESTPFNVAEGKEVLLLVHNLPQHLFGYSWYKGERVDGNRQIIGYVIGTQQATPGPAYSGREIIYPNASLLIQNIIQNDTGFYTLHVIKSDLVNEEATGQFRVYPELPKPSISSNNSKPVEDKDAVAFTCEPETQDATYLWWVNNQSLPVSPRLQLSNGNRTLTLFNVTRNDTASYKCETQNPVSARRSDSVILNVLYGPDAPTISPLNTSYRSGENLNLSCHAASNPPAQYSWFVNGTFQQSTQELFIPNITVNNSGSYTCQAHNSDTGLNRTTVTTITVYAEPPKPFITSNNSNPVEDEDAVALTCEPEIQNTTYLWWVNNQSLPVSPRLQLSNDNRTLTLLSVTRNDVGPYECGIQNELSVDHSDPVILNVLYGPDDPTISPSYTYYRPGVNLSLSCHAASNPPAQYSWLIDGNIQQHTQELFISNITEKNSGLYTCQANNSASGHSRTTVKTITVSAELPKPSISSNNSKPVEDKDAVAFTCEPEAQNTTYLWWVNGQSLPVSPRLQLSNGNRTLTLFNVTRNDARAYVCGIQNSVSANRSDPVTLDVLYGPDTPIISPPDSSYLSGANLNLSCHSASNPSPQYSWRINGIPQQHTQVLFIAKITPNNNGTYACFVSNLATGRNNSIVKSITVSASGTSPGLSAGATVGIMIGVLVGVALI
UniProt Q9NZQ7, sequence (Q9NZQ7 19-290 limits assumed): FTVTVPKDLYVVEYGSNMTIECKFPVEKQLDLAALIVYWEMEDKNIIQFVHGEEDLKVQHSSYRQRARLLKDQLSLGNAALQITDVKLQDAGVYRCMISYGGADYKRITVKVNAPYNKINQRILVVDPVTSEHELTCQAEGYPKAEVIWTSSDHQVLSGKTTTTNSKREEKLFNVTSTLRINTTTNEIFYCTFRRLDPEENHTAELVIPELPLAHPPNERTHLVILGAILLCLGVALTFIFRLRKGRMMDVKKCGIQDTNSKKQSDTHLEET

In assay [1], “MFE23 CD28(IEV) truncated CoStAR (receptor)” showed an IL-2 secretion (ELISA), coculture with LoVo-OKT3 of 4.6 ng/mL.

In turn, “CTP197 OSM_MFE23_spCD28_CD28_CD40 (PQEINF-AQAINF) (receptor)” registered an IFNγ (ELISA) after 24 h with LoVo-OKT3 in assay [1] greater than 30 ng/mL.

For the substance “CTP194 OSM_MFE23_spCD28_CD28_CD40 (receptor)”, in assay [1], the IFNγ (ELISA) after 24 h with LoVo-OKT3 is greater than 30 ng/mL; the IFNγ (ELISA), coculture with LoVo-OKT3 was determined as 1000 pg/mL; the IL-2 (ELISA) after 24 h with LoVo-OKT3 was found to be 4000 pg/mL; the IL-2 (ELISA), coculture with LoVo-OKT3 is 4000 pg/mL. In assay [1], the IL-2 secretion (ELISA), 24 h coculture with LoVo-OKT3 worked out at 4000 pg/mL; the IL-2 secretion (ELISA), coculture with LoVo-OKT3 was found to be 29 ng/mL; the T-cell expansion over 18 days with LoVo-OKT3 and IL-2 is greater than 60 fold; the fold expansion after two rounds of stimulation with LoVo-OKT3 is 10 fold. Also, in assay [1], the fold expansion on serial stimulation with LoVo-OKT3 was 12 fold; the fold expansion with LoVo-OKT3, after restimulation (day 14-15) was greater than 10 fold; the fold expansion with LoVo-OKT3, first time point (day 6-8) worked out at 4 fold.

In assay [1], “CTP198 OSM_MFE23_spCD28_CD28_CD40 (P227A) (receptor)” displayed an IFNγ (ELISA) after 24 h with LoVo-OKT3 greater than 30 ng/mL and an IL-2 (ELISA) after 24 h with LoVo-OKT3 of 4000 pg/mL.

Substance “CTP196 OSM_MFE23_spCD28_CD28_CD40 (PVQET-AVAEA) (receptor)” came in with an IFNγ (ELISA) after 24 h with LoVo-OKT3 in assay [1] of 10 ng/mL.

On to “MOV19.CD28 CoStAR (from UniProt P10747 19-220) (receptor)”, for which, in assay [2], the enhancement of Bcl-XL induction in the presence of OvCAR-OKT3 was 20%; the enhancement of IL-2 induction in the presence of OvCAR-OKT3 came to 20%; the enhancement of TNFα production in the presence of OvCAR-OKT3 is 20 to 30%; the mean fold expansion of T cells, 21 days with OvCAR-OKT3 came to 187 fold.

On to “MOV19.CD28.CD40 CoStAR (OSM_MOV19_spCD28_CD28_CD40) (receptor)”, for which, in assay [2], the CD137 expression came to 50%; the CD137 expression in CoStAR+ TIL, coculture with FolR high expressing tumor digest worked out at 50%; the CD137 expression in CoStAR+ TIL, coculture with FolR low expressing tumor digest was greater than 20%; the IL-2 production came to 5%. Moreover, in assay [2], the TNFα production was determined as 15%; the enhancement of Bcl-XL induction in the presence of OvCAR-OKT3 is 35%; the enhancement of IL-2 induction in the presence of OvCAR-OKT3 lay in the range of 30 to 50%; the enhancement of TNFα production in the presence of OvCAR-OKT3 is 25% and 50%. The substance further showed a mean fold expansion of T cells, 21 days with OvCAR-OKT3 in assay [2] of 1300 fold.

The substance “CTP202 OSM_MFE23_spCD28_CD28 (YMNM-FMNM)_CD40 (receptor)” displayed an IL-2 (ELISA), coculture with LoVo-OKT3 in assay [1] of 2500 pg/mL.

In assay [3], “CTP188 PD1_PD1_sCD28TM_CD28_CD40 (dimeric) (receptor)” came in with an IL-2 secretion (ELISA), 24 h coculture with LoVo-OKT3 of less than 1000 pg/mL.

Regarding “CTP201 OSM_MFE23_spCD28_CD28 (PYAPP-AYAA)_CD40 (receptor)”, in assay [1], the IFNγ (ELISA), coculture with LoVo-OKT3 worked out at 1000 pg/mL and the IL-2 (ELISA), coculture with LoVo-OKT3 amounted to 2500 pg/mL.

For “CTP200 OSM_MFE23_spCD28_CD28_CD40_CD40_CD40 (receptor)”, the IFNγ (ELISA) after 24 h with LoVo-OKT3 in assay [1] is greater than 30 ng/mL.

As for “CTP189 PD1_PD1_sCD28TM_CD28_CD40 (monomeric) (receptor)”, the IL-2 secretion (ELISA), 24 h coculture with LoVo-OKT3 in assay [3] was less than 1000 pg/mL.

“CTP195 OSM_MFE23_spCD28_CD28_CD40 (SVQE-AVQA) (receptor)”: in assay [1], the IFNγ (ELISA) after 24 h with LoVo-OKT3 was greater than 30 ng/mL and the IL-2 (ELISA) after 24 h with LoVo-OKT3 was 4000 pg/mL.

The values are drawn from patent US20220348631A1.
